US20130005646A1 (Novo Nordisk, published 2013)
Starred links: 1 amine or outer side, 2 acyl side, 3 side chain; linkers in the order of their positions; H or OH if unused. Positions of bridges follow the written chain, without caps; N, C: chain ends. Groups on a side chain read outwards from the residue. No end group written: not given here. *: point of attachment. X1 = (S)‑4‑Carboxy‑4‑(19-carboxynonadecanoylamino)butyryl, O=C(O)CCCCCCCCCCCCCCCCCCC(=O)N[C@@H](CCC(=O)*)C(=O)O; C20 diacid = O=C(O)CCCCCCCCCCCCCCCCCCC(=O)*; C18 diacid = O=C(O)CCCCCCCCCCCCCCCCC(=O)*; γGlu = O=C(O)[C@H](CCC(=O)[*:2])N[*:1]

T1: human calcitonin (a) receptor (human, UniProt P30988 25-474)
T1 sequence (looked up): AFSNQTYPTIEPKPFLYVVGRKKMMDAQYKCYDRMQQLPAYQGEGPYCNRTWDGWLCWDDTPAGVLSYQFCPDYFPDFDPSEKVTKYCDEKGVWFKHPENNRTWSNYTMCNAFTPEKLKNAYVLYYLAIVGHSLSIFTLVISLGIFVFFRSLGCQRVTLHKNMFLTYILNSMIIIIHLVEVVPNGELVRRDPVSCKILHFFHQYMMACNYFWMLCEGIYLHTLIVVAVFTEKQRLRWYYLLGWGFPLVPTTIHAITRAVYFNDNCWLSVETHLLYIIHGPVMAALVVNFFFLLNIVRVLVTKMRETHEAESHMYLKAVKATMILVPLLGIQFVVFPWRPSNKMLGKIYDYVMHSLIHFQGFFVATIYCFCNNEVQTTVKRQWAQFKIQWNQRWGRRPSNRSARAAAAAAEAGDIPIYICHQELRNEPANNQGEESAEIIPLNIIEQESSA

T2: human amylin 3(a) receptor (human calcitonin receptor + RAMP-3) (human, UniProt P30988 25-474; O60896 24-148)
T2 sequence (looked up) 1: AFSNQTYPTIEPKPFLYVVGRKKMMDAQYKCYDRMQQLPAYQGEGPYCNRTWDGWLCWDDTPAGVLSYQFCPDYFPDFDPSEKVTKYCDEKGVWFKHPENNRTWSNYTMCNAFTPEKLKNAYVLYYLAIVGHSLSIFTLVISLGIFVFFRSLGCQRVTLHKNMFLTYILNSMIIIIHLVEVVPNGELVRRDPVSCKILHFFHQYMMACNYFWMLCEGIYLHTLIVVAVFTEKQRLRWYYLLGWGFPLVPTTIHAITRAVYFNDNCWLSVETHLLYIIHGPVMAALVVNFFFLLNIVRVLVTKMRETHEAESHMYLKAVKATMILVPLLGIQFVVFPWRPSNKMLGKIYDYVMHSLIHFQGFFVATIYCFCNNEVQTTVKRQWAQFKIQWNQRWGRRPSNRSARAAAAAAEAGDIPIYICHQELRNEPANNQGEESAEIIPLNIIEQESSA
T2 sequence (looked up) 2: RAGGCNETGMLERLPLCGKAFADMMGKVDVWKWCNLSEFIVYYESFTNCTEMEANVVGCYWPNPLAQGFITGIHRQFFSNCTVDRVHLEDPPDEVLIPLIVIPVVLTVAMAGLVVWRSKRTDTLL


Key:
[1] = molecular target: T1, human calcitonin (a) receptor; assay: cell-based or functional assay
[2] = molecular target: T2, human amylin 3(a) receptor (human …); assay: cell-based or functional assay

Row | Binder | CTa receptor human EC50 [1] [nM] | Amylin receptor human EC50 [2] [nM]
1 | {C20 diacid-γGlu}-RCNTATCATQRLAEFLHHSSNNFGPILPPTNVGSHTY-NH2 (disulfide 2-7; SMILES CC[C@H](C)[C@H](NC(=O)[C@@H]1CCCN1C(=O)CNC(=O)[C@H](Cc1ccccc1)NC(=O)[C@H](CC(N)=O)NC(=O)[C@H](CC(N)=O)NC(=O)[C@H](CO)NC(=O)[C@H](CO)NC(=O)[C@H](Cc1c[nH]cn1)NC(=O)[C@H](Cc1c[nH]cn1)NC(=O)[C@H](CC(C)C)NC(=O)[C@H](Cc1ccccc1)NC(=O)[C@H](CCC(=O)O)NC(=O)[C@H](C)NC(=O)[C@H](CC(C)C)NC(=O)[C@H](CCCNC(=N)N)NC(=O)[C@H](CCC(N)=O)NC(=O)[C@@H](NC(=O)[C@H](C)NC(=O)[C@@H]1CSSC[C@H](NC(=O)[C@H](CCCNC(=N)N)NC(=O)CC[C@H](NC(=O)CCCCCCCCCCCCCCCCCCC(=O)O)C(=O)O)C(=O)N[C@@H](CC(N)=O)C(=O)N[C@@H]([C@@H](C)O)C(=O)N[C@@H](C)C(=O)N[C@@H]([C@@H](C)O)C(=O)N1)[C@@H](C)O)C(=O)N[C@@H](CC(C)C)C(=O)N1CCC[C@H]1C(=O)N1CCC[C@H]1C(=O)N[C@H](C(=O)N[C@@H](CC(N)=O)C(=O)N[C@H](C(=O)NCC(=O)N[C@@H](CO)C(=O)N[C@@H](Cc1c[nH]cn1)C(=O)N[C@H](C(=O)N[C@@H](Cc1ccc(O)cc1)C(N)=O)[C@@H](C)O)C(C)C)[C@@H](C)O) [N-alpha-[(S)-4-Carboxy-4-(19-carboxynonadecanoylamino)butyryl]-[Arg1,Glu14,His17,His35]-pramlintide] | 0.175 | 0.082
2 | {C20 diacid-γGlu}-RCNTATCATQRLANFLVHSSNNFGPILPPTNVGSNTP-NH2 (disulfide 2-7; SMILES CC[C@H](C)[C@H](NC(=O)[C@@H]1CCCN1C(=O)CNC(=O)[C@H](Cc1ccccc1)NC(=O)[C@H](CC(N)=O)NC(=O)[C@H](CC(N)=O)NC(=O)[C@H](CO)NC(=O)[C@H](CO)NC(=O)[C@H](Cc1c[nH]cn1)NC(=O)[C@@H](NC(=O)[C@H](CC(C)C)NC(=O)[C@H](Cc1ccccc1)NC(=O)[C@H](CC(N)=O)NC(=O)[C@H](C)NC(=O)[C@H](CC(C)C)NC(=O)[C@H](CCCNC(=N)N)NC(=O)[C@H](CCC(N)=O)NC(=O)[C@@H](NC(=O)[C@H](C)NC(=O)[C@@H]1CSSC[C@H](NC(=O)[C@H](CCCNC(=N)N)NC(=O)CC[C@H](NC(=O)CCCCCCCCCCCCCCCCCCC(=O)O)C(=O)O)C(=O)N[C@@H](CC(N)=O)C(=O)N[C@@H]([C@@H](C)O)C(=O)N[C@@H](C)C(=O)N[C@@H]([C@@H](C)O)C(=O)N1)[C@@H](C)O)C(C)C)C(=O)N[C@@H](CC(C)C)C(=O)N1CCC[C@H]1C(=O)N1CCC[C@H]1C(=O)N[C@H](C(=O)N[C@@H](CC(N)=O)C(=O)N[C@H](C(=O)NCC(=O)N[C@@H](CO)C(=O)N[C@@H](CC(N)=O)C(=O)N[C@H](C(=O)N1CCC[C@H]1C(N)=O)[C@@H](C)O)C(C)C)[C@@H](C)O) [N-alpha-[(S)-4-Carboxy-4-(19-carboxynonadecanoylamino)butyryl]-[Arg1,Pro37]-pramlintide] | 0.0385 | 0.034
3 | {C20 diacid-γGlu}-GHCNTATCATQRLAEFLHHSSNNFGPILPPTNVGSNTP-NH2 (disulfide 3-8; SMILES CC[C@H](C)[C@H](NC(=O)[C@@H]1CCCN1C(=O)CNC(=O)[C@H](Cc1ccccc1)NC(=O)[C@H](CC(N)=O)NC(=O)[C@H](CC(N)=O)NC(=O)[C@H](CO)NC(=O)[C@H](CO)NC(=O)[C@H](Cc1c[nH]cn1)NC(=O)[C@H](Cc1c[nH]cn1)NC(=O)[C@H](CC(C)C)NC(=O)[C@H](Cc1ccccc1)NC(=O)[C@H](CCC(=O)O)NC(=O)[C@H](C)NC(=O)[C@H](CC(C)C)NC(=O)[C@H](CCCNC(=N)N)NC(=O)[C@H](CCC(N)=O)NC(=O)[C@@H](NC(=O)[C@H](C)NC(=O)[C@@H]1CSSC[C@H](NC(=O)[C@H](Cc2c[nH]cn2)NC(=O)CNC(=O)CC[C@H](NC(=O)CCCCCCCCCCCCCCCCCCC(=O)O)C(=O)O)C(=O)N[C@@H](CC(N)=O)C(=O)N[C@@H]([C@@H](C)O)C(=O)N[C@@H](C)C(=O)N[C@@H]([C@@H](C)O)C(=O)N1)[C@@H](C)O)C(=O)N[C@@H](CC(C)C)C(=O)N1CCC[C@H]1C(=O)N1CCC[C@H]1C(=O)N[C@H](C(=O)N[C@@H](CC(N)=O)C(=O)N[C@H](C(=O)NCC(=O)N[C@@H](CO)C(=O)N[C@@H](CC(N)=O)C(=O)N[C@H](C(=O)N1CCC[C@H]1C(N)=O)[C@@H](C)O)C(C)C)[C@@H](C)O) | 0.049 | 0.052

The next lines start with the values.

Row | CTa receptor human EC50 [1] [nM] | Amylin receptor human EC50 [2] [nM] | Binder
4 | 0.193 | 0.0745 | {C20 diacid-γGlu}-RCNTATCATQRLANFLVHSSNNFGPILPPTNVGSHTY-NH2 (disulfide 2-7; SMILES CC[C@H](C)[C@H](NC(=O)[C@@H]1CCCN1C(=O)CNC(=O)[C@H](Cc1ccccc1)NC(=O)[C@H](CC(N)=O)NC(=O)[C@H](CC(N)=O)NC(=O)[C@H](CO)NC(=O)[C@H](CO)NC(=O)[C@H](Cc1c[nH]cn1)NC(=O)[C@@H](NC(=O)[C@H](CC(C)C)NC(=O)[C@H](Cc1ccccc1)NC(=O)[C@H](CC(N)=O)NC(=O)[C@H](C)NC(=O)[C@H](CC(C)C)NC(=O)[C@H](CCCNC(=N)N)NC(=O)[C@H](CCC(N)=O)NC(=O)[C@@H](NC(=O)[C@H](C)NC(=O)[C@@H]1CSSC[C@H](NC(=O)[C@H](CCCNC(=N)N)NC(=O)CC[C@H](NC(=O)CCCCCCCCCCCCCCCCCCC(=O)O)C(=O)O)C(=O)N[C@@H](CC(N)=O)C(=O)N[C@@H]([C@@H](C)O)C(=O)N[C@@H](C)C(=O)N[C@@H]([C@@H](C)O)C(=O)N1)[C@@H](C)O)C(C)C)C(=O)N[C@@H](CC(C)C)C(=O)N1CCC[C@H]1C(=O)N1CCC[C@H]1C(=O)N[C@H](C(=O)N[C@@H](CC(N)=O)C(=O)N[C@H](C(=O)NCC(=O)N[C@@H](CO)C(=O)N[C@@H](Cc1c[nH]cn1)C(=O)N[C@H](C(=O)N[C@@H](Cc1ccc(O)cc1)C(N)=O)[C@@H](C)O)C(C)C)[C@@H](C)O) [N-alpha-[(S)-4-Carboxy-4-(19-carboxynonadecanoylamino)butyryl]-[Arg1,His35]-pramlintide]
5 | 0.052 | 0.054 | X1-GCNTATCATQRLAEFLHHSSNNFGPILPPTNVGSNTP-NH2 (disulfide 2-7; SMILES CC[C@H](C)[C@H](NC(=O)[C@@H]1CCCN1C(=O)CNC(=O)[C@H](Cc1ccccc1)NC(=O)[C@H](CC(N)=O)NC(=O)[C@H](CC(N)=O)NC(=O)[C@H](CO)NC(=O)[C@H](CO)NC(=O)[C@H](Cc1c[nH]cn1)NC(=O)[C@H](Cc1c[nH]cn1)NC(=O)[C@H](CC(C)C)NC(=O)[C@H](Cc1ccccc1)NC(=O)[C@H](CCC(=O)O)NC(=O)[C@H](C)NC(=O)[C@H](CC(C)C)NC(=O)[C@H](CCCNC(=N)N)NC(=O)[C@H](CCC(N)=O)NC(=O)[C@@H](NC(=O)[C@H](C)NC(=O)[C@@H]1CSSC[C@H](NC(=O)CNC(=O)CC[C@H](NC(=O)CCCCCCCCCCCCCCCCCCC(=O)O)C(=O)O)C(=O)N[C@@H](CC(N)=O)C(=O)N[C@@H]([C@@H](C)O)C(=O)N[C@@H](C)C(=O)N[C@@H]([C@@H](C)O)C(=O)N1)[C@@H](C)O)C(=O)N[C@@H](CC(C)C)C(=O)N1CCC[C@H]1C(=O)N1CCC[C@H]1C(=O)N[C@H](C(=O)N[C@@H](CC(N)=O)C(=O)N[C@H](C(=O)NCC(=O)N[C@@H](CO)C(=O)N[C@@H](CC(N)=O)C(=O)N[C@H](C(=O)N1CCC[C@H]1C(N)=O)[C@@H](C)O)C(C)C)[C@@H](C)O) [N-alpha-[(S)-4-Carboxy-4-(19-carboxynonadecanoylamino)butyryl]-[Gly1,Glu14,His17,Pro37]-pramlintide]
6 | 0.286 | 0.12 | K([γGlu-C18 diacid])CNTATCATQRLAEFLHHSSNNFGPILPPTNVGSHTY-NH2 (disulfide 2-7; N-terminus assumed; SMILES CC[C@H](C)[C@H](NC(=O)[C@@H]1CCCN1C(=O)CNC(=O)[C@H](Cc1ccccc1)NC(=O)[C@H](CC(N)=O)NC(=O)[C@H](CC(N)=O)NC(=O)[C@H](CO)NC(=O)[C@H](CO)NC(=O)[C@H](Cc1c[nH]cn1)NC(=O)[C@H](Cc1c[nH]cn1)NC(=O)[C@H](CC(C)C)NC(=O)[C@H](Cc1ccccc1)NC(=O)[C@H](CCC(=O)O)NC(=O)[C@H](C)NC(=O)[C@H](CC(C)C)NC(=O)[C@H](CCCNC(=N)N)NC(=O)[C@H](CCC(N)=O)NC(=O)[C@@H](NC(=O)[C@H](C)NC(=O)[C@@H]1CSSC[C@H](NC(=O)[C@@H](N)CCCCNC(=O)CC[C@H](NC(=O)CCCCCCCCCCCCCCCCC(=O)O)C(=O)O)C(=O)N[C@@H](CC(N)=O)C(=O)N[C@@H]([C@@H](C)O)C(=O)N[C@@H](C)C(=O)N[C@@H]([C@@H](C)O)C(=O)N1)[C@@H](C)O)C(=O)N[C@@H](CC(C)C)C(=O)N1CCC[C@H]1C(=O)N1CCC[C@H]1C(=O)N[C@H](C(=O)N[C@@H](CC(N)=O)C(=O)N[C@H](C(=O)NCC(=O)N[C@@H](CO)C(=O)N[C@@H](Cc1c[nH]cn1)C(=O)N[C@H](C(=O)N[C@@H](Cc1ccc(O)cc1)C(N)=O)[C@@H](C)O)C(C)C)[C@@H](C)O) [N-epsilon1-[(S)-4-Carboxy-4-(17-carboxyheptadecanoylamino)butyryl]-[Glu14,His17,His35]-pramlintide]
